First the molecules themselves.
B1: Adenosine receptor A2a, P29274 (parent)
chain: MPIMGSSVYITVELAIAVLAILGNVLVCWAVWLNSNLQNVTNYFVVSLAAADIAVGVLAIPFAITISTGFCAACHGCLFIACFVLVLTQSSIFSLLAIAIDRYIAIRIPLRYNGLVTGTRAKGIIAICWVLSFAIGLTPMLGWNNCGQPKEGKNHSQGCGEGQVACLFEDVVPMNYMVYFNFFACVLVPLLLMLGVYLRIFLAARRQLKQMESQPLPGERARSTLQKEVHAAKSLAIIVGLFALCWLPLHIINCFTFFCPDCSHAPLWLMYLAIVLSHTNSVVNPFIYAYRIREFRQTFRKIIRSHVLRQQEPFKAAGTSARVLAAHGSDGEQVSLRLNGHPPGVWANGSAPHPERRPNGYALGLVSGGSAQESQGNTGLPDVELLSHELKGVCPEPPGLDDPLAQDGAGVS

The variants in the series derive from B1. Particulars: Homo sapiens; pH 7.4; Thermal; Activity; Tris 50 mM; NaCl 0.4 M; structure 4UHR; whole UniProt chain shown.

Several values for one entry are separate records, joined by “and”; a condition that tells them apart may be missing. Equal values may be shown once.

Consider MPIMGSSVYITVELAIAVLAILGNVLVCWAVWLNSNLQNVTNYFVVSLAAADILVGVLAIPFAITISTGFCAACHGCLFIACFVLVLTQSSIFSLLAIAIDRYIAIRIPLRYNGLVTGTRAKGIIAICWVLSFAIGLTPMLGWNNCGQPKEGKNHSQGCGEGQVACLFEDVVPMNYMVYFNFFACVLVPLLLMLGVYLRIFLAARRQLKQMESQPLPGERARSTLQKEVHAAKSAAIIVGLFALCWLPLHIINCFTFFCPDCSHAPLWLMYLAIVLSHTNSVVNPFIYAYRIREFRQTFRKIIRSHVLRQQEPFKAAGTSARVLAAHGSDGEQVSLRLNGHPPGVWANGSAPHPERRPNGYALGLVSGGSAQESQGNTGLPDVELLSHELKGVCPEPPGLDDPLAQDGAGVS [A54L L235A], for which the melting temperature (Tm) is 42 °C and 45 °C; the “change of melting temperature, mutant - wild type (higher = more stable)” value (from here on “change of melting temperature, mutant”) was 11 °C and 13 °C.

Take MPIMGSSVYITVELAIAVLAILGNVLVCWAVWLNSNLQNVTNYFVVSLAAADIAVGVLAIPFAITISTGFCAACHGCLFIACFVLVLTQSSIFSLLAIAIDRYIAIRIPLRYNGLVTGTRAKGIIAICWVLSFAIGLTPMLGWNNCGQPKEGKNHSQGCGEGQVACAFEDVVPMNYMVYFNFFLCVLVPLLLMLGVYLRIFLAARRQLKQMESQPLPGERARSTLQKEVHAAKSLAIIVGLFALCWLPLHIINCFTFFCPDCSHAPLWLMYAAIVLSHTNSVVNPFIYAYRIREFRQTFRKIIRSHVLRQQEPFKAAGTSARVLAAHGSDGEQVSLRLNGHPPGVWANGSAPHPERRPNGYALGLVSGGSAQESQGNTGLPDVELLSHELKGVCPEPPGLDDPLAQDGAGVS [L167A A184L L272A]: the Tm turned out to be 27 °C and the “change of melting temperature, mutant” value amounted to 7 °C.

Consider MPIMGSSVYITVELAIAVLAILGNVLVCWAVWLNSNLQNVTNYFVVSLAAADILVGVLAIPFAITISTGFCAACAGCLFIACFVLVLAQSSIFSLLAIAIDRYIAIRIPLRYNGLVTGTRAKGIIAICWVLSFAIGLTPMLGWNNCGQPKEGKNHSQGCGEGQVACLFEDVVPMNYMVYFNFFACVLVPLLLMLGVYLRIFLAARRQLKQMESQPLPGERARSTLQKEVHAAKSLAIIAGLFALCWLPLHIINCFTFFCPDCSHAPLWLMYLAIVLSHTNSVVNPFIYAYRIREFRQTFRKIIRSHVLRQQEPFKAAGTSARVLAAHGSDGEQVSLRLNGHPPGVWANGSAPHPERRPNGYALGLVSGGSAQESQGNTGLPDVELLSHELKGVCPEPPGLDDPLAQDGAGVS [A54L H75A T88A V239A], for which the Tm was 40 °C and 44 °C; the “change of melting temperature, mutant” value was 9 °C and 12 °C.

Take MPIMGSSVYITVELAIAVLAILGNVLVCWAVWLNSNLQNVTNYFVVSLAAADIAVGVLAIPFAITISTGFCAACHGCLFIACFVLVLTQSSIFSLLAIAIDRYIAIRIPLRYNGLVTGTRAKGIIAICWVLSFAIGLTPMLGWNNCGQPKEGKNHSQGCGEGQVACAFEDVVPMNYMVYFNFFLCVLVPLLLMLGVYLAIFLAARRQLKQMESQPLPGERARSTLQKEVAAAKSLAIIVGLFALCWLPLHIINCFTFFCPDCSHAPLWLMYLAIVLSHTNSVVNPFIYAYRIREFRQTFRKIIRSHVLRQQEPFKAAGTSARVLAAHGSDGEQVSLRLNGHPPGVWANGSAPHPERRPNGYALGLVSGGSAQESQGNTGLPDVELLSHELKGVCPEPPGLDDPLAQDGAGVS [L167A A184L R199A H230A]: the Tm was determined as 31 °C and the “change of melting temperature, mutant” value amounted to 11 °C.

Regarding MPIMGSSVYITVELAIAVLAILGNVLVCWAVWLNSNLQNVTNYFVVSLAAADILVGVLAIPFAITISTGFCAACHGCLFIACFVLVLTQSSIFSLLAIAIDRYIAIRIPLRYNGLVTGTRAAGIIAICWVLSFAIGLTPMLGWNNCGQPKEGKNHSQGCGEGQVACLFEDVVPMNYMVYFNFFACVLVPLLLMLGVYLRIFLAARRQLKQMESQPLPGERARSTLQKEVHAAKSLAIIVGLFALCWLPLHIINCFTFFCPDCSHAPLWLMYLAIVLSHTNSVVNPFIYAYRIREFRQTFRKIIRSHVLRQQEPFKAAGTSARVLAAHGSDGEQVSLRLNGHPPGVWANGSAPHPERRPNGYALGLVSGGSAQESQGNTGLPDVELLSHELKGVCPEPPGLDDPLAQDGAGVS [A54L K122A], the Tm is 35 °C and 40 °C; the “change of melting temperature, mutant” value is 4 °C and 8 °C.

In the case of MPIMGSSVYITVELAIAVLAILGNVLVCWAVWLNSNLQNVTNYFVVSLAAADIAVGVLAIPFAITISTGFCAACHGCLFIACFVLVLTQSSIFSLLAIAIDRYIAIRIPLRYNGLVTGTRAKGIIAICWVLSFAIGLTPMLGWNNCGQPKEGKNHSQGCGEGQVACLFEDVVPMNYMVYFNFFACVLVPLLLMLGVYLRIFLAARRQLKAMESQPLPGARARSTLQKEVHAAKSLAIIVGLFALCWLPLHIINCFTFFCPDCSHAPLWLMYLAIVLSHTNSVVNPFIYAYRIREFRQTFRKIIRSHVLRQQEPFKAAGTSARVLAAHGSDGEQVSLRLNGHPPGVWANGSAPHPERRPNGYALGLVSGGSAQESQGNTGLPDVELLSHELKGVCPEPPGLDDPLAQDGAGVS [Q210A E219A], the Tm came out at 31 °C and the “change of melting temperature, mutant” value amounted to 11 °C.

On to MPIMGSSVYITVELAIAVLAILGNVLVCWAVWLNSNLQNVTNYFVVSLAAADILVGALAIPFAITISTGFCAACHGCLFIACFVLVLTQSSIFSLLAIAIDRYIAIRIPLRYNGLVTGTRAKGIIAICWVLSFAIGLTPMLGWNNCGQPKEGKNHSQGCGEGQVACLFEDVVPMNYMVYFNFFACVLVPLLLMLGVYLRIFLAARRQLKQMESQPLPGERARSTLQKEVHAAKSLAIIVGLFALCWLPLHIINCFTFFCPDCSHAPLWLMYLAIVLSHTNSVVNPFIYAYRIREFRQTFRKIIRSHVLRQQEPFKAAGTSARVLAAHGSDGEQVSLRLNGHPPGVWANGSAPHPERRPNGYALGLVSGGSAQESQGNTGLPDVELLSHELKGVCPEPPGLDDPLAQDGAGVS [A54L V57A], for which the Tm was determined as 31 °C and the “change of melting temperature, mutant” value was determined as 0 °C.

The values are drawn from FireProtDB (doi:10.1073/pnas.0804396105).
